Laboratory results published in the Human Domainome abundance scans (Beltran et al. 2025).
± gives the uncertainty stated by the source.

B1: Cullin-9, residues 2234 to 2275; numbered along this chain, Q8IWT3 (parent)
chain: KRCPSCQAPIEKNEGCLHMTCAKCNHGFCWRCLKSWKPNHKD
B2: F-BAR and double SH3 domains protein 1, residues 467 to 528; numbered along this chain, Q86WN1 (parent)
chain: RALPCPAHVVFRYQAGREDELTITEGEWLEVIEEGDADEWVKARNQHGEVGFVPERYLNFPD

Variants of: B1
Test: abundance fitness (aPCA) (normalised: wild type 0, dead -1); higher = more abundant; growth selection in yeast, the domain comes from the species named
Details: Homo sapiens

Variant	abundance fitness
WRCPSCQAPIEKNEGCLHMTCAKCNHGFCWRCLKSWKPNHKD [K1W]	-1.42 ± 0.38
QRCPSCQAPIEKNEGCLHMTCAKCNHGFCWRCLKSWKPNHKD [K1Q]	-0.691 ± 0.4
MRCPSCQAPIEKNEGCLHMTCAKCNHGFCWRCLKSWKPNHKD [K1M]	-0.162 ± 0.17
VRCPSCQAPIEKNEGCLHMTCAKCNHGFCWRCLKSWKPNHKD [K1V]	-0.46 ± 0.11
GRCPSCQAPIEKNEGCLHMTCAKCNHGFCWRCLKSWKPNHKD [K1G]	-0.815 ± 0.097
RRCPSCQAPIEKNEGCLHMTCAKCNHGFCWRCLKSWKPNHKD [K1R]	-0.948 ± 0.12
TRCPSCQAPIEKNEGCLHMTCAKCNHGFCWRCLKSWKPNHKD [K1T]	-0.377 ± 0.19
SRCPSCQAPIEKNEGCLHMTCAKCNHGFCWRCLKSWKPNHKD [K1S]	-0.756 ± 0.15
CRCPSCQAPIEKNEGCLHMTCAKCNHGFCWRCLKSWKPNHKD [K1C]	-1.12 ± 0.26
YRCPSCQAPIEKNEGCLHMTCAKCNHGFCWRCLKSWKPNHKD [K1Y]	0.038 ± 0.38
IRCPSCQAPIEKNEGCLHMTCAKCNHGFCWRCLKSWKPNHKD [K1I]	0.164 ± 0.34
ERCPSCQAPIEKNEGCLHMTCAKCNHGFCWRCLKSWKPNHKD [K1E]	-0.586 ± 0.11
FRCPSCQAPIEKNEGCLHMTCAKCNHGFCWRCLKSWKPNHKD [K1F]	-0.735 ± 0.39
LRCPSCQAPIEKNEGCLHMTCAKCNHGFCWRCLKSWKPNHKD [K1L]	-0.493 ± 0.15
HRCPSCQAPIEKNEGCLHMTCAKCNHGFCWRCLKSWKPNHKD [K1H]	-0.436 ± 0.29
KKCPSCQAPIEKNEGCLHMTCAKCNHGFCWRCLKSWKPNHKD [R2K]	0.123 ± 0.1
KMCPSCQAPIEKNEGCLHMTCAKCNHGFCWRCLKSWKPNHKD [R2M]	0.559 ± 0.11
KECPSCQAPIEKNEGCLHMTCAKCNHGFCWRCLKSWKPNHKD [R2E]	0.175 ± 0.1
KHCPSCQAPIEKNEGCLHMTCAKCNHGFCWRCLKSWKPNHKD [R2H]	0.104 ± 0.35
KNCPSCQAPIEKNEGCLHMTCAKCNHGFCWRCLKSWKPNHKD [R2N]	0.571 ± 0.14
KICPSCQAPIEKNEGCLHMTCAKCNHGFCWRCLKSWKPNHKD [R2I]	1.09 ± 0.27
KCCPSCQAPIEKNEGCLHMTCAKCNHGFCWRCLKSWKPNHKD [R2C]	0.07 ± 0.18
KGCPSCQAPIEKNEGCLHMTCAKCNHGFCWRCLKSWKPNHKD [R2G]	0.204 ± 0.079
KACPSCQAPIEKNEGCLHMTCAKCNHGFCWRCLKSWKPNHKD [R2A]	0.084 ± 0.096
KLCPSCQAPIEKNEGCLHMTCAKCNHGFCWRCLKSWKPNHKD [R2L]	0.227 ± 0.089

Variants of: B2
Test: as above
Details: Homo sapiens

Variant	abundance fitness
E27C	-0.699 ± 0.14
E27K	-0.369 ± 0.12
E27W	-0.911 ± 0.16
E27L	-0.961 ± 0.12
E27I	-0.468 ± 0.22
N45C	-0.994 ± 0.28
N45R	-0.941 ± 0.12
N45D	-0.571 ± 0.2
N45M	-0.891 ± 0.24
N45V	-0.949 ± 0.16
R44I	-0.036 ± 0.09
R44F	-0.756 ± 0.09
R44K	0.003 ± 0.09
R44H	-0.74 ± 0.14
R44W	-0.947 ± 0.19
R44P	-0.673 ± 0.099
R44M	-0.175 ± 0.066
I32T	-0.256 ± 0.067
I32D	-0.73 ± 0.15
I32Q	-0.307 ± 0.091
I32A	-0.84 ± 0.1
I32C	-0.557 ± 0.15
I32K	-0.948 ± 0.24
V9S	-0.752 ± 0.09

Variant	abundance fitness
V9R	-0.788 ± 0.081
E18H	-0.531 ± 0.34
E18L	-0.23 ± 0.044
E18I	-0.389 ± 0.16
E18S	-0.127 ± 0.048
E18D	0.082 ± 0.1
E18K	-0.238 ± 0.086
A15F	-0.956 ± 0.37
A15G	-0.088 ± 0.05
A15S	-0.146 ± 0.052
A15E	-0.438 ± 0.12
A15C	-0.536 ± 0.097
G35R	-0.072 ± 0.056
G35F	-0.172 ± 0.11
G35Y	-0.223 ± 0.11
G35N	-0.276 ± 0.11
A2T	0.184 ± 0.069
A2K	0.169 ± 0.069
A2Y	0.389 ± 0.14
A2V	0.128 ± 0.055
A2E	0.196 ± 0.083
A2W	-0.146 ± 0.061
F52Q	-0.259 ± 0.071
F52S	-0.059 ± 0.058

Variant	abundance fitness
F52V	-0.127 ± 0.039
F52E	-0.322 ± 0.058
F52C	-0.189 ± 0.088
F52K	0.048 ± 0.072
F52G	-0.491 ± 0.055
T24G	-0.231 ± 0.069
T24W	-0.25 ± 0.076
T24V	-0.041 ± 0.053
T24N	-0.212 ± 0.15
T24S	-0.083 ± 0.051
T24K	0.042 ± 0.077
T24R	-0.037 ± 0.059
T24E	0.105 ± 0.082
E49H	-0.015 ± 0.12
E49Q	0.101 ± 0.073
E49T	-0.075 ± 0.07
N59F	-0.091 ± 0.075
N59R	0.066 ± 0.043
N59I	-0.079 ± 0.075
W28T	-0.053 ± 0.081
W28G	-0.217 ± 0.058
W28E	-0.081 ± 0.14
F11L	-0.061 ± 0.037
F11C	0.014 ± 0.058

Variant	abundance fitness
F11H	0.043 ± 0.095
F11M	0.141 ± 0.053
F11P	-0.774 ± 0.11
R17E	-0.02 ± 0.083
R17C	0.064 ± 0.067
R17A	-0.032 ± 0.068
E34H	-0.071 ± 0.12
E34S	-0.101 ± 0.053
E34D	-0.409 ± 0.23
E34I	-0.165 ± 0.11
P61R	-0.09 ± 0.039
P61Q	0.081 ± 0.088
P61N	-0.042 ± 0.096
P61Y	-0.303 ± 0.17
P54A	-0.2 ± 0.073
P54K	-0.075 ± 0.1
P54E	-0.509 ± 0.11
P54F	-0.287 ± 0.075
Q46E	-0.052 ± 0.056
Q46R	-0.028 ± 0.047
Q46K	0.074 ± 0.062
G26N	-0.195 ± 0.15
G26M	-0.701 ± 0.11
K42H	-0.571 ± 0.14

Variant	abundance fitness
K42Q	-0.129 ± 0.074
K42G	-0.775 ± 0.14
R12S	0.133 ± 0.048
R12N	0.033 ± 0.078
A43C	-0.038 ± 0.12
A43Y	-0.914 ± 0.21
A43R	-0.842 ± 0.15
A43S	-0.578 ± 0.079
A43M	-0.548 ± 0.11
A43W	-0.83 ± 0.15
L29D	-0.642 ± 0.25
L29T	-0.782 ± 0.15
L29I	-0.004 ± 0.14
L29C	-0.819 ± 0.24
L29P	-0.688 ± 0.11
E33T	-0.305 ± 0.071
E33A	-0.048 ± 0.07
V50M	-0.108 ± 0.07
V50I	-0.235 ± 0.12
V50H	-0.554 ± 0.12
V50R	-0.607 ± 0.071
V50D	-0.599 ± 0.25
V50C	-0.191 ± 0.17
H47T	-0.172 ± 0.065

Variant	abundance fitness
H47I	-0.176 ± 0.14
H47L	0.01 ± 0.041
H47D	-0.006 ± 0.081
H47C	-0.045 ± 0.13
H47G	0.051 ± 0.048
L21P	-0.947 ± 0.18
L21Y	-1 ± 0.23
L21K	-0.989 ± 0.35
L21N	-0.925 ± 0.26
L21D	-0.851 ± 0.35
L21G	-0.87 ± 0.13
L21C	-0.951 ± 0.31
L21R	-0.99 ± 0.13
E30W	-0.185 ± 0.07
E30D	-0.177 ± 0.093
E30Y	-0.238 ± 0.099
I23F	-0.791 ± 0.1
I23N	-1.18 ± 0.36
V10L	-0.165 ± 0.05
V10W	-0.236 ± 0.08
V10S	-0.105 ± 0.073
V10T	-0.167 ± 0.099
V10D	-0.109 ± 0.13
V10N	-0.336 ± 0.24

Variant	abundance fitness
R1S	-0.153 ± 0.058
R1V	-0.519 ± 0.08
R1M	-0.548 ± 0.24
L3R	-0.333 ± 0.044
L3W	-0.53 ± 0.065
E39P	-0.207 ± 0.067
E39F	0.042 ± 0.079
E39T	0.02 ± 0.055
P6C	-0.12 ± 0.071
P6E	-0.294 ± 0.074
P6L	-0.321 ± 0.048
P6Y	-0.258 ± 0.12
D62Q	-0.276 ± 0.17
D62M	-0.181 ± 0.18
D62P	-0.235 ± 0.082
D62W	-0.356 ± 0.084
Y57R	-0.373 ± 0.071
Y57E	-0.595 ± 0.11
Y57S	0.123 ± 0.058
Y57Q	-0.292 ± 0.089
Y57F	-0.006 ± 0.06
Y57L	-0.023 ± 0.037
W40H	-0.01 ± 0.085
W40K	-0.051 ± 0.075

Variant	abundance fitness
W40V	-0.111 ± 0.067
W40R	0.121 ± 0.042
W40M	0.037 ± 0.073
D19T	0.051 ± 0.059
D19N	-0.028 ± 0.084
D19P	-0.396 ± 0.087
D19W	-0.426 ± 0.084
L58M	-0.574 ± 0.11
L58H	-1.12 ± 0.32
G51P	-0.952 ± 0.16
G51C	-0.958 ± 0.15
G51A	-0.691 ± 0.1
G51Y	-0.736 ± 0.16
G51F	-0.669 ± 0.12
F60M	-0.223 ± 0.079
F60N	-0.531 ± 0.16
F60K	-0.533 ± 0.1
E55G	-0.132 ± 0.055
E55S	-0.069 ± 0.05
E55Y	-0.196 ± 0.081
E55M	0.035 ± 0.049
V53N	-0.829 ± 0.24
V53S	-0.981 ± 0.097
P4W	-0.664 ± 0.11

Variant	abundance fitness
P4Y	-0.477 ± 0.15
P4G	-0.333 ± 0.068
P4F	-0.451 ± 0.087
P4R	-0.505 ± 0.076
D36H	0.033 ± 0.15
D36T	-0.042 ± 0.065
D36F	0.005 ± 0.069
E25G	-0.281 ± 0.1
E25I	-0.348 ± 0.22
E25H	-0.176 ± 0.17
E25W	-0.373 ± 0.12
G16D	-0.233 ± 0.12
G16H	-0.027 ± 0.091
G16I	-0.118 ± 0.093
G16P	-0.608 ± 0.2
E20V	-0.626 ± 0.097
E20P	-1.01 ± 0.17
E20S	-0.385 ± 0.061
E20G	-0.179 ± 0.062
V31R	-0.743 ± 0.069
V31L	-0.454 ± 0.057
V31W	-0.837 ± 0.11
V31M	-0.501 ± 0.12
C5Y	-0.215 ± 0.077

Variant	abundance fitness
C5R	-0.431 ± 0.062
C5M	-0.595 ± 0.1
C5H	-0.145 ± 0.42
C5A	-0.479 ± 0.24
T22P	-0.704 ± 0.1
T22Y	-0.844 ± 0.22
T22C	-0.265 ± 0.14
T22L	-0.778 ± 0.065
A7R	-0.617 ± 0.067
A7L	-0.866 ± 0.086
A7G	-0.328 ± 0.061
D38C	-0.047 ± 0.068
D38Y	-0.122 ± 0.056
D38H	-0.002 ± 0.19
D38N	-0.017 ± 0.062
D38L	0.016 ± 0.044
A37F	-0.023 ± 0.12
A37H	-0.005 ± 0.13
A37K	0.14 ± 0.06
A37G	-0.05 ± 0.079
A37M	0.018 ± 0.056
Q14Y	-0.241 ± 0.084
Q14S	-0.106 ± 0.053
Q14H	-0.071 ± 0.072

Variant	abundance fitness
Q14A	-0.153 ± 0.063
Q14C	-0.363 ± 0.081
Q14E	-0.024 ± 0.064
H8A	-0.497 ± 0.073
V41C	-0.013 ± 0.069
V41T	-0.609 ± 0.15
V41N	-1.01 ± 0.3
V41Q	-0.949 ± 0.18
V41K	-0.411 ± 0.13
V41L	-0.199 ± 0.048
G48H	-0.34 ± 0.16
G48D	-0.217 ± 0.067
R56Y	-0.174 ± 0.078
R56T	0.005 ± 0.068
R56K	0.033 ± 0.057
R56D	-0.074 ± 0.11
Y13H	-0.109 ± 0.11
Y13T	-0.629 ± 0.13
Y13C	-0.486 ± 0.11
Y13S	-0.356 ± 0.059
Y13P	-0.711 ± 0.13
Y13E	-0.959 ± 0.21
Y13L	-0.595 ± 0.077
Y13K	-0.16 ± 0.094
